Results published in the DeepSol protein solubility set.

assay: soluble on expression in E. coli; label from the status in PepcDB or PDB records

Soluble on expression in E. coli, not soluble:
MGSDKIHHHHHHMLELLEPIAIFTHVARAGSFSAAARRLGISKSKVSTQVADLEHRLGVQLIQRTTRSLSLTEAGHLLYLQGEELLRDAEQAIASVHNLNDATRGVLKVGISQSFGVMHIIPALPSFMAKHPELELQVSLLDHKVDVVSEGLDLLLTMSEQLPLGMVARPLMKCQFLLVASPGYIAQHGEPTRPEQLVDHNCLVYQGEWHEHSMWQFKKGDDYCEIGVSGNFRVDNAPALKSAAISGLGVVYLASYLMEDEITKGTLVPLLKDWQLTHHLPLQAVYPRRKHLAPKVSSFIEFIKDHIGTPPYWDAPYVELFSKRQ
MYKILEKKEIAMRNTWYKVYAPHVAKKVQPGQFVIVRAFPNGERIPLTPVMWDREEGWIVLIVFTRGKTTMRMAVELKEGDSLLNVAGPLGTPVPMEKFGKILAIGAYTGIVEVYPIAKAWQEIGNDVTTLHVTFEPMVILKEELEKAVTRHIVEPVPLNPNQDFLANMKNVSQRLKEKVRELLESEDWDLVFMVGPVGDQKQVFEVVKEYGVPMKVDLHPIMVDGTGMCGACRVTVGGEVKFACVDGPEFDAYQVDWDELIHRVGFYAKLEKLALEKYMEELKAKGVILEHHHHHH
MTETEQEAFADLVAELETQTAEAVKAFSKVFDRMEETNDDKEGLSLLKLKNYEMTAYLGELTVLMSKMMKGESITVEPSVKRALKHRVFIEKMKPVEDKMKPQIEKLLGRSSAESGASNGSSKGNHRVRLDNMDVEGDEEEEEEDEDDEEGKGAKEVKKYVAPRIRAVRYEEEDEAPNKQQEKAKRRAMQSSLIMELKNQYSDAPEEIREMSEKKYQYDRERERYEEDNFTRIRLNKDQKRRSEQLGRSETLDDLLSFGDYMMRGEDGRALSEGNKRKRATSSGAGGDTKRHKKSQKERKKAAKGKKEGRKRAIRRRQ

Soluble on expression in E. coli, soluble:
MKIGIIGAGLGGLLSGAILSKEHSITIYEKLPFVGGRFTNIPYKGFQLTTGALHMIPHGNEGYLAQTLRRAGSNVKIVNSEPDGYFRINGKNHEYKDIFGLVSAKDKLKALKLAASLKLGKIDKNMPFGEFLEDIPLALDVGNSFSGWALSLNAYDTPMSEIIEISKLYHKFGGPGIPVGGCKGVIDSLVEIINKNGGKIYTSHAIEKIEVEENNVFLDSEQFDIVISNASPKLTEKMSNIKFIEKEPVPSKGIKINVASKLSLVDGASVIFTTDCERINGLNQPSNVDRSLAKEDYNLIMLHATQIKNNTKEEISLALNDIESLFGGKDYEVISIQSYGNGWPVNHASNGTDLNPIVKDNLLLVGDGVKGVGGIEVEGVAMSVIAVLNHIEKLKK
MQVMASPPCTTEELSPPPGGSLVEYSGGSLRVPDNPVVAFIRGDGVGPEVVESALKVVDAAVKKVYGGSRRIVWWELLAGHLAREKCGELLPKATLEGIRLARVALKGPLETPVGTGYRSLNVAIRQALDLYANIRPVRYYGQPAPHKYADRVDMVIFRENTEDVYAGIEWPHDSPEAARIRRFLAEEFGISIREDAGIGVKPISRFATRRLMERALEWALRNGNTVVTIMHKGNIMKYTEGAFMRWAYEVALEKFREHVVTEQEVQEKYGGVRPEGKILVNDRIADNMLQQIITRPWDYQVIVAPNLNGDYISDAASALVGGIGMAAGMNMGDGIAVAEPVHGTAPKYAGKDLINPSAEILSASLLIGEFMGWREVKSIVEYAIRKAVQSKKVTQDLARHMPGVQPLRTSEYTETLIAYIDEADLNEVLAGKRG
KTAFTAEVLAQSFSGEVQKLSSLVLPAEVIIAQSSIPGEGLGIFSKTWIKAGTEMGPFTGRVIAPEHVDICKNNNLMWEVFNEDGTVRYFIDASQEDHRSWMTYIKCARNEQEQNLEVVQIGTSIFYKAIEMIPPDQELLVWYGNSHNTFLGIPGVPGLEEDQKKNKHED
GSHGRSRFVKKDGHCNVQFINVGEKRNETLVFSHNAVIAMRDGKLCLMWRVGNLQKSHLVEAHVRAQLLKSRITSEGEYIPLDQIDINVGFDSGIDRIFLVSPITIVHEIDEDSPLYDLSKQDIDNADFEIVVILEGMVEATAMTKQCRSSYLANEILWGHRYEPVLFEEKHYYKVDYSRFHKTYEVPNTPLCSARDLAEKKYILSNA
